± gives the uncertainty stated by the source.
B1: MEF2-activating motif and SAP domain-containing transcriptional regulator, residues 170 to 204; numbered along this chain, Q6ZN01 (parent)
chain: LKLEELTVSELRQQLRLRGLPVSGTKSMLLERMRG

Variants of: B1
Assay: abundance fitness (aPCA) (normalised: wild type 0, dead -1); higher = more abundant; growth selection in yeast, the domain comes from the species named
Settings: Homo sapiens

Variant | abundance fitness
LKLEELTVSELRQQLRLRGLSVSGTKSMLLERMRG [P21S] | -0.129 ± 0.061
LKLEELTVSELRQQLRLRGLDVSGTKSMLLERMRG [P21D] | -0.094 ± 0.059
LKLEELTVSELRQQLRLRGLPVSGTKSMELERMRG [L29E] | -0.22 ± 0.14
LKLEELTVSELRQQLRLRGLPVSGTKSMRLERMRG [L29R] | -0.616 ± 0.072
LKLEELTVSELRQQLRLRGLPVSGTKSMVLERMRG [L29V] | -0.842 ± 0.074
LKLEELTVSELRQQLRLRGLPVSGTKSMMLERMRG [L29M] | -0.338 ± 0.21
LKLEELTVSELRQQLRLRGLPVSGTKSMILERMRG [L29I] | -0.749 ± 0.19
LKLEELTVSELRQQLRLRGLPVSGTKSMKLERMRG [L29K] | -0.31 ± 0.17
LKLEELTVSELRQQLRLRGLPVSGTKSMPLERMRG [L29P] | -0.909 ± 0.22
LKLEELTVSELRQQLRLRGLPVSGTKSMQLERMRG [L29Q] | -0.486 ± 0.085
LKLEELTVSELRQQLRLRGLPVSGTKSMGLERMRG [L29G] | -0.455 ± 0.053
LKLEELTVSELRQQLRLRGLPVSGTKSMSLERMRG [L29S] | -0.545 ± 0.061
LKLEELTVSELRQQLRLRGLPVSGTKSMTLERMRG [L29T] | -0.297 ± 0.08
LKLEELTVSELRQQLRLRGLPVSGTKSMDLERMRG [L29D] | -0.51 ± 0.072
LKLEELTVSELRQQLRLRGLPVSGTKSMWLERMRG [L29W] | -0.594 ± 0.11
LKLEELTVSELRQQLRLRGLPVSGTKSMNLERMRG [L29N] | -0.683 ± 0.3
LKLEELTVSELRQQLRLRGLPVSGTKSMFLERMRG [L29F] | -0.589 ± 0.14
LKLEELTVSELRQQLRLRGLPVSGTKSHLLERMRG [M28H] | -0.003 ± 0.14
LKLEELTVSELRQQLRLRGLPVSGTKSILLERMRG [M28I] | -0.015 ± 0.098
LKLEELTVSELRQQLRLRGLPVSGTKSNLLERMRG [M28N] | -0.402 ± 0.19
LKLEELTVSELRQQLRLRGLPVSGTKSSLLERMRG [M28S] | -0.36 ± 0.096
LKLEELTVSELRQQLRLRGLPVSGTKSVLLERMRG [M28V] | 0.05 ± 0.057
LKLEELTVSELRQQLRLRGLPVSGTKSLLLERMRG [M28L] | -0.106 ± 0.058
LKLEELTVSELRQQLRLRGLPVSGTKSQLLERMRG [M28Q] | 0.067 ± 0.32

Variant | abundance fitness
LKLEELTVSELRQQLRLRGLPVSGTKSFLLERMRG [M28F] | -0.616 ± 0.23
LKLEELTVSELRQQLRLRGLPVSGTKSALLERMRG [M28A] | 0.022 ± 0.095
LKLEELTVSELRQQLRLRGLPVSGTKSGLLERMRG [M28G] | -0.512 ± 0.072
LKLEELTVSELRQQLRLRGLPVSGTKSCLLERMRG [M28C] | -0.393 ± 0.25
LKLEELTVSELRQQLRLRGLPVSGTKSPLLERMRG [M28P] | -0.973 ± 0.38
LKLEELTVSELRQQLRLRGLPVSGTKSWLLERMRG [M28W] | -0.839 ± 0.29
LKLEELTVSELRQQLRLRGLPVSGTKSTLLERMRG [M28T] | -0.081 ± 0.07
LKLEELTVSELRQQLRLRGLPVSQTKSMLLERMRG [G24Q] | -0.935 ± 0.16
LKLEELTVSELRQQLRLRGLPVSMTKSMLLERMRG [G24M] | -0.768 ± 0.13
LKLEELTVSELRQQLRLRGLPVSETKSMLLERMRG [G24E] | -0.335 ± 0.084
LKLEELTVSELRQQLRLRGLPVSRTKSMLLERMRG [G24R] | -0.867 ± 0.1
LKLEELTVSELRQQLRLRGLPVSKTKSMLLERMRG [G24K] | -1.25 ± 0.2
LKLEELTVSELRQQLRLRGLPVSWTKSMLLERMRG [G24W] | -0.41 ± 0.21
LKLEELTVSELRQQLRLRGLPVSLTKSMLLERMRG [G24L] | -1.01 ± 0.26
LKLEELTVSELRQQLRLRGLPVSPTKSMLLERMRG [G24P] | -0.829 ± 0.095
LKLEELTVSELRQQLRLRGLPVSSTKSMLLERMRG [G24S] | -0.817 ± 0.13
LKLEELTVSELRQQLRLRGLPVSVTKSMLLERMRG [G24V] | -0.828 ± 0.069
LKLEELTVSELRQQLRLRGLPVYGTKSMLLERMRG [S23Y] | -0.106 ± 0.14
LKLEELTVSELRQQLRLRGLPVAGTKSMLLERMRG [S23A] | -0.103 ± 0.062
LKLEELTVSELRQQLRLRGLPVPGTKSMLLERMRG [S23P] | -0.838 ± 0.096
LKLEELTVSELRQQLRLRGLPVLGTKSMLLERMRG [S23L] | -0.349 ± 0.068
LKLEELTVSELRQQLRLRGLPVMGTKSMLLERMRG [S23M] | -0.222 ± 0.065
LKLEELTVSELRQQLRLRGLPVGGTKSMLLERMRG [S23G] | -0.007 ± 0.071
LKLEELTVSELRQQLRLRGLPVNGTKSMLLERMRG [S23N] | -0.02 ± 0.12

Variant | abundance fitness
LKLEELTVSELRQQLRLRGLPVCGTKSMLLERMRG [S23C] | -0.274 ± 0.16
LKLEELTVSELRQQLRLRGLPVDGTKSMLLERMRG [S23D] | 0.233 ± 0.14
LKLEELTVSELRQQLRLRGLPVRGTKSMLLERMRG [S23R] | -0.384 ± 0.076
LKLEELTVSELRQQLRLRGLPVQGTKSMLLERMRG [S23Q] | -0.147 ± 0.11
LKLEELTVSELRQQLRLRGLPVKGTKSMLLERMRG [S23K] | -0.198 ± 0.075
LKLEELTVSELRQQLRLRGLPVVGTKSMLLERMRG [S23V] | -0.16 ± 0.092
LKLEELTVSELRQQLRLRGLPVWGTKSMLLERMRG [S23W] | -0.883 ± 0.37
LKLEELTVSELRQQLRLRGLPVEGTKSMLLERMRG [S23E] | 0.025 ± 0.068
LKLEELTVSELRQQLRLRGWPVSGTKSMLLERMRG [L20W] | -0.626 ± 0.089
LKLEELTVSELRQQLRLRGMPVSGTKSMLLERMRG [L20M] | -0.005 ± 0.22
LKLEELTVSELRQQLRLRGSPVSGTKSMLLERMRG [L20S] | -0.731 ± 0.35
LKLEELTVSELRQQLRLRGGPVSGTKSMLLERMRG [L20G] | -0.669 ± 0.067
LKLEELTVSELRQQLRLRGYPVSGTKSMLLERMRG [L20Y] | -0.284 ± 0.11
LKLEELTVSELRQQLRLRGRPVSGTKSMLLERMRG [L20R] | -0.914 ± 0.095
LKLEELTVSELRQQLRLRGIPVSGTKSMLLERMRG [L20I] | -0.646 ± 0.25
LKLEELTVSELRQQLRLRGQPVSGTKSMLLERMRG [L20Q] | -0.587 ± 0.27
LKLEELTVSELRQQLRLRGTPVSGTKSMLLERMRG [L20T] | -0.879 ± 0.13
LKLEELTVSELRQQLRLRGFPVSGTKSMLLERMRG [L20F] | -0.329 ± 0.14
LKLEELTVSELRQQLRLRGVPVSGTKSMLLERMRG [L20V] | -0.575 ± 0.071
LKLEELTVSELRQQLRLRGKPVSGTKSMLLERMRG [L20K] | -0.555 ± 0.11
LKLEELTVSELRQQLRLRGEPVSGTKSMLLERMRG [L20E] | -0.192 ± 0.055
LKLEELTVSELRQQLRLRGAPVSGTKSMLLERMRG [L20A] | -0.296 ± 0.075

Reference: the Human Domainome abundance scans (Beltran et al. 2025)
